Assay results taken from US20230203538A1.
One block for each substance: values may come before it.

Columns and labels:
[1] = molecular target: CD5 on murine T cells (mouse) (UniProt P13379); assay: cell-based or functional assay
[2] = molecular target: CD5 on human ACH2 immortalized T cells (human) (UniProt P06127); assay: cell-based or functional assay
UniProt P06127, sequence (P06127 25-495 limits assumed): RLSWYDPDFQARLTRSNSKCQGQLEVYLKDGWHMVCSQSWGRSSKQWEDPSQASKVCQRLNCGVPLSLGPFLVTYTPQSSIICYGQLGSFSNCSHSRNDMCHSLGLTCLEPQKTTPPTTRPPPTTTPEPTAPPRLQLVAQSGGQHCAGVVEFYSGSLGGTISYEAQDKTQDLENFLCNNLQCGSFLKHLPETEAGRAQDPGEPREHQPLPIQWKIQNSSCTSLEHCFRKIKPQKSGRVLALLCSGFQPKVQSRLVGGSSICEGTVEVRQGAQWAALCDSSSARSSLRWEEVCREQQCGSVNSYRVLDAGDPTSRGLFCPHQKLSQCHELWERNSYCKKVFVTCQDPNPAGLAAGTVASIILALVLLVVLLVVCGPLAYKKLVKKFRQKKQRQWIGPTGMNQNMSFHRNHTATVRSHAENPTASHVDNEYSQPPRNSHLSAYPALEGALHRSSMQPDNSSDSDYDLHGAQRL

UniProt P13379, sequence (P13379 24-494 limits assumed): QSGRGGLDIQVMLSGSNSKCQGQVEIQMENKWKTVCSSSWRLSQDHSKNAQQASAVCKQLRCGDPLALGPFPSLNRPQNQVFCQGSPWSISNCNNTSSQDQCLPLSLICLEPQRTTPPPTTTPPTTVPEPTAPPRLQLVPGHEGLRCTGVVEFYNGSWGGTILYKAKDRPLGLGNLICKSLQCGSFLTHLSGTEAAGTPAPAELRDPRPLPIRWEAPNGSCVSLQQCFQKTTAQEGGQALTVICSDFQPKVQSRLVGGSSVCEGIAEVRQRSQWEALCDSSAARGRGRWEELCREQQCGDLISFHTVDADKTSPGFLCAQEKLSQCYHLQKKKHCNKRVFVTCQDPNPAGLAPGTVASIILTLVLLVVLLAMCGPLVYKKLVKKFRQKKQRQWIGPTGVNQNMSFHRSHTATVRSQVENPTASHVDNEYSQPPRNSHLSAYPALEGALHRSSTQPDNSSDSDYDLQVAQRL

percent of murine T cells expressing FAPCAR 48 hours after incubation with CD5/LNP-FAPCAR (flow cytometry) [1]: 83%
percent of murine T cells expressing GFP 48 hours after incubation with CD5/LNP-GFP (flow cytometry) [1]: 78%
Substance: purified rat anti-mouse CD5, clone 53-7.3 (BioLegend), conjugated to LNP-mRNA (antibody)

Substance: mouse anti-human CD5, clone UCHT2 (BioLegend), conjugated to LNP-mRNA (antibody)
percent gene transfer (GFP) in human ACH2 T cells 24 hours after mixing with CD5/LNP-GFP [2]: 89 to 93%

percent of murine T cells that received mRNA from IgG/LNP-FAPCAR (flow cytometry) [1]: 7%
Substance: control isotype matched IgG conjugated to LNP-mRNA (antibody)
